Test results from US20240272171A1 (PHENOMEX, published 2024).
No end group written: not given here. *: point of attachment. FITC = O=C1OC2(c3ccc(O)cc3Oc3cc(O)ccc32)c2ccc(NC(=S)*)cc21

What was measured:
[1] = target: T1, HLA-A*02:01 MHC Class I complex (recombinant, biotinylated) (human, biotinylated (lysine of a C-terminal BirA recognition sequence)); experiment: pMHC on streptavidin beads held in T cell culture media at 37 C for 0-48 h; APC W6/32 staining, flow cytometry MFI fitted to an exponential decay
T1 construct: Bought as a peptide-loaded complex (Biolegend or other maker); also called pHLA (when loaded with peptide)

[2] = target: T1, HLA-A*02:01 MHC Class I complex …; experiment: loading into HLA-A*02:01 and catalysed peptide exchange test

half-life of the complex [1] [h]	binding result [2]	Binder
~17	–	SLYSYFQKV (also called Immunogenic SLC45A2-derived peptide; SLC45A2 antigen peptide) [SLYSYFQKV (SEQ ID NO: 5), SLC45A2-derived peptide]
–	binds	GAATK(FITC)MAAV [EP5 GAATKMAAV (SEQ ID NO: 13), FITC-labelled in-place peptide GAAT{Lys(FITC)}MAAV]
~0.5	–	SLLPIMWQLY (also called Non-Immunogenic TCL1-derived peptide) [SLLPIMWQLY (SEQ ID NO: 6), TCL1-derived peptide]
